Target: the molecule itself
Test: SEC-MALS; about 10 mg/ml applied to Superdex 200 Increase 10/300 in PBS; DAWN HELEOS and Optilab T-rEX detectors

B1: Recombinant MISHA/FAM136A (sample of the SEC-MALS analysis) (natural protein)
chain: not shown
notes: human FAM136A/MISHA, Uniprot Q96C01, printed as 138 amino acids (the whole entry); tag removed before the assay; Applied at about 10 mg/ml; also called Mitochondrial-IMS membrane-SHApe-impacting protein; source: E. coli SHuffle, purified; tag cleaved in both
Question: With B1 as the protein, how does the “stoichiometry N” value read?
Answer: The value was 2.
